Measurements: US20120225060A1
Read-outs that look alike come from different tables or passages of the source.

What was measured:
[1] = target: IL-6R on human myeloma U266B1 cells (human) (UniProt P08887); experiment: cell-based or functional assay
[2] = target: IL-6R on human myeloma U266B1 cells (human) (UniProt P08887); experiment: FACS binding to IL-6R on U266B1 cells
[3] = target: IL-6R on human myeloma U266B1 cells (human) (UniProt P08887); experiment: FACS binding to IL-6R on U266B1 cells; remark: listed apart in the source
[4] = target: IL-6R on human myeloma U266B1 cells (human) (UniProt P08887); experiment: FACS on U266B1 cells
[5] = target: recombinant human IL-6R-extracellular domain (ECD) (human) (UniProt P08887); experiment: receptor-ligand ELISA, blocking of IL-6 binding to IL-6R
Chain of recombinant human IL-6R-extracellular domain (ECD) (human) (P08887 20-365): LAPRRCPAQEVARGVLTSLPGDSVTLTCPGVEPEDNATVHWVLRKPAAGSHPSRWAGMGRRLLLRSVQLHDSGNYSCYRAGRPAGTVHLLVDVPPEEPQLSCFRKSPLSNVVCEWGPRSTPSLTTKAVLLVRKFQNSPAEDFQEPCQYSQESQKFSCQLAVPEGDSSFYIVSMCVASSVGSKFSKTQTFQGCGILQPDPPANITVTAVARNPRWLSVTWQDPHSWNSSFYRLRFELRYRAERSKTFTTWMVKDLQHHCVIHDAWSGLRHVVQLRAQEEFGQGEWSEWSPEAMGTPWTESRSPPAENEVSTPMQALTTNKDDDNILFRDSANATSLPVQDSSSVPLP

[6] = target: recombinant human IL-6R-extracellular domain (ECD) (human) (UniProt P08887); experiment: as above; remark: listed apart in the source
[7] = target: recombinant human IL-6R-extracellular domain (ECD) (human) (UniProt P08887); experiment: SPR
[8] = target: IL-6R on human myeloma U266B1 cells (human) (UniProt P08887); experiment: cell-based or functional assay; remark: listed apart in the source
[9] = target: recombinant human IL-6R-extracellular domain (ECD) (human) (UniProt P08887); experiment: direct ELISA on IL-6R

Chain of IL-6R on human myeloma U266B1 cells (human) (P08887 20-468): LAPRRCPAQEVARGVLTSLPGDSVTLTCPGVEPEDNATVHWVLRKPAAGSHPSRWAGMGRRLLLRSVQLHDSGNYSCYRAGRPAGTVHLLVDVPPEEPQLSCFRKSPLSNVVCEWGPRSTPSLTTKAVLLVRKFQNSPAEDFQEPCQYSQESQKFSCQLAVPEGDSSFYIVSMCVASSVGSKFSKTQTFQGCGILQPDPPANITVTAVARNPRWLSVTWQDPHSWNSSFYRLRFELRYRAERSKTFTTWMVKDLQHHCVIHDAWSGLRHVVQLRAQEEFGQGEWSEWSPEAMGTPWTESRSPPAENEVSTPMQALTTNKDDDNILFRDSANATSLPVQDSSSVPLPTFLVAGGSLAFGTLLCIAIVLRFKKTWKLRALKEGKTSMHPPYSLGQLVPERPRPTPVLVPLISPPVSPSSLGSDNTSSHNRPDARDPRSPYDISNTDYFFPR

B1: Tocilizumab (antibody, part only; not given: constant regions, V domains shown, not shown: another chain or arm of the molecule)
VH: QVQLQESGPGLVRPSQTLSLTCTVSGYSITSDHAWSWVRQPPGRGLEWIGYISYSGITTYNPSLKSRVTMLRDTSKNQFSLRLSSVTAADTAVYYCARSLARTTAMDYWGQGSLVTVSS
VL: DIQMTQSPSSLSASVGDRVTITCRASQDISSYLNWYQQKPGKAPKLLIYYTSRLHSGVPSRFSGSGSGTDFTFTISSLQPEDIATYYCQQGNTLPYTFGQGTKVEIK
[1]
  TF-1 proliferation IC50: 0.214 µg/mL
[2]
  EC50: 0.206 µg/mL
[3]
  EC50: 0.602 µg/mL
[4]
  EC50 (read off the curve): 0.6 µg/mL
[5]
  IC50: 1.1 µg/mL
[6]
  IC50: 0.56 µg/mL
[7]
  Kd: 3.85 nM
  koff: 0.00097 s⁻¹
  kon: 252000 M⁻¹ s⁻¹
[8]
  TF-1 proliferation IC50: 0.04 µg/mL
[9]
  EC50: 0.0458 µg/mL
